Positions count from the first letter of the chain named.
B1: F1670 (antibody)
heavy: QVQLQESGPGLVKPSETLSLTCAVSGHSISHDHAWSWVRQPPGEGLEWIGFISYSGITNYNPSLQGRVTISRDNSKNTLYLQMNSLRAEDTAVYYCARSLARTTAMDYWGEGTLVTVSSASTKGPSVFPLAPSSKSTSGGTAALGCLVKDYFPEPVTVSWNSGALTSGVHTFPAVLQSSGLYSLSSVVTVPSSSLGTQTYICNVNHKPSNTKVDKKVEPKSCDKTHTCPPCPAPELRGGPKVFLFPPKPKDTLMISRTPEVTCVVVDVSHEDPEVKFNWYVDGVEVHNAKTKPREEQYNSTYRVVSVLTVLHQDWLNGKEYKCKVSNKALPAPIEKTISKAKGQPREPQVYTLPPSRDELTKNQVSLTCLVKGFYPSDIAVEWESNGQPENNYKTTPPVLDSDGSFFLYSKLTVDKSRWQQGNVFSCSVMHEALHYHVTRKELSLSP
light: DIQMTQSPSSLSASVGDSVTITCQASTDISSHLNWYQQKPGKAPELLIYYGSHLLSGVPSRFSGSGSGTDFTFTISSLEAEDAATYYCGQGNRLPYTFGQGTKVEIERTVAAPSVFIFPPSDEQLKSGTASVVCLLNNFYPREAKVQWKVDNALQSGNSQESVTEQDSKDSTYSLSSTLTLSKADYEKHKVYACEVTHQGLSSPVTKSFNRGEC
B2: F1761 (antibody)
heavy: B1 heavy with R237L, K241S, H435D, V438T, E442D
light: B1 light
B3: F1718 (antibody)
heavy: B1 heavy with R237L, K241S
light: B1 light
notes: S440F as printed
B4: F1757 (antibody)
heavy: B1 heavy with R237L, K241S, V438T, E442D
light: B1 light
B5: F1716 (antibody)
heavy: B1 heavy with H435D, R440K
light: B1 light
B6: F1751 (antibody)
heavy: B1 heavy with V438T, R440K, E442D
light: B1 light
B7: F1675 (antibody)
heavy: B1 heavy with H435D, R440Q, E442S
light: B1 light
B8: F1725 (antibody)
heavy: B1 heavy with R237L, K241S, H435D, R440K, E442D
light: B1 light
B9: F1683 (antibody)
heavy: B1 heavy with V438F
light: B1 light
B10: F1714 (antibody)
heavy: B1 heavy with H435D
light: B1 light
B11: F1752 (antibody)
heavy: B1 heavy with H435D, V438T
light: B1 light
B12: F1724 (antibody)
heavy: B1 heavy with R237L, K241S, H435D, R440K
light: B1 light
B13: F1758 (antibody)
heavy: B1 heavy with R237L, K241S, V438T, R440K
light: B1 light
B14: F1754 (antibody)
heavy: B1 heavy with H435D, V438T, R440K
light: B1 light
B15: F1759 (antibody)
heavy: B1 heavy with R237L, K241S, V438T, R440K, E442D
light: B1 light
B16: F1720 (antibody)
heavy: B1 heavy with R237L, K241S, R440K
light: B1 light
B17: F1712 (antibody)
heavy: B1 heavy with R440K
light: B1 light
B18: F1715 (antibody)
heavy: B1 heavy with H435D, E442D
light: B1 light
B19: F1719 (antibody)
heavy: B1 heavy with R237L, K241S, E442D
light: B1 light
B20: F1763 (antibody)
heavy: B1 heavy with R237L, K241S, H435D, V438T, R440K, E442D
light: B1 light
B21: F1681 (antibody)
heavy: B1 heavy with V438T
light: B1 light
B22: F1753 (antibody)
heavy: B1 heavy with H435D, V438T, E442D
light: B1 light
B23: F1749 (antibody)
heavy: B1 heavy with V438T, E442D
light: B1 light
B24: F1756 (antibody)
heavy: B1 heavy with R237L, K241S, V438T
light: B1 light
B25: F1750 (antibody)
heavy: B1 heavy with V438T, R440K
light: B1 light
B26: F1723 (antibody)
heavy: B1 heavy with R237L, K241S, H435D, E442D
light: B1 light
B27: Fv-4-F1112 (antibody, human IgG1, kappa)
heavy: B1 heavy with R237L, K241S, M254Y, R440K, E442S
light: B1 light
B28: Fv-4-F1231 (antibody)
heavy: B1 heavy with R237L, K241S, M254Y, R440K
light: B1 light
B29: Fv-4-F1230 (antibody)
heavy: B1 heavy with R237L, K241S, M254Y, E442D
light: B1 light
B30: Fv-4-F1111 (antibody, human IgG1, kappa)
heavy: B1 heavy with R237L, K241S, M254Y, S426K, R440Q, E442S
light: B1 light
B31: Fv-4-F1113 (antibody)
heavy: B1 heavy with R237L, K241S, M254Y, R440Q, E442D
light: B1 light
B32: Fv-4-F1124 (antibody)
heavy: B1 heavy with R237L, K241S, T252V, M254Y, T309Q, V310P, Q313A
light: B1 light
B33: Fv-4-F1110 (antibody, human IgG1, kappa)
heavy: B1 heavy with R237L, K241S, M254Y, V424Q, R440Q, E442S
light: B1 light
B34: Fv-4-F1114 (antibody)
heavy: B1 heavy with R237L, K241S, M254Y, R440Q, E442Q
light: B1 light
B35: Fv-4-F1122 (antibody, human IgG1, kappa)
heavy: B1 heavy with R237L, K241S, T252V, M254Y, T309Q, V310P, Q313A, E442S
light: B1 light
B36: Fv-4-F1108 (antibody, human IgG1, kappa)
heavy: B1 heavy with R237L, K241S, M254Y, V424K, R440Q, E442S
light: B1 light
B37: Fv-4-F1121 (antibody, human IgG1, kappa)
heavy: QVQLQESGPGLVKPSETLSLTCAVSGHSISHDHAWSWVRQPPGEGLEWIGFISYSGITNYNPSLQGRVTISRDNSKNTLYLQMNSLRAEDTAVYYCARSLARTTAMDYWGEGTLVTVSSASTKGPSVFPLAPSSKSTSGGTAALGCLVKDYFPEPVTVSWNSGALTSGVHTFPAVLQSSGLYSLSSVVTVPSSSLGTQTYICNVNHKPSNTKVDKKVEPKSCDKTHTCPPCPAPELLGGPSVFLFPPKPKDVLYISRTPEVTCVVVDVSHEDPEVKFNWYVDGVEVHNAKTKPREEQYNSTYRVVSVLQPLHADWLNGKEYKCKVSNKALPAPIEKTISKAKGQPREPQVYTLPPSRDELTKNQVSLTCLVKGFYPSDIAVEWESNGQPENNYKTTPPVLDSDGSFFLYSKLTVDKSRWQQGNEFRCSVMHEALHYHVTQKSLSLSP
light: B1 light
B38: Fv-4-F1109 (antibody, human IgG1, kappa)
heavy: B37 heavy with V252T, Q309T, P310V, A313Q, E424T, R426S
light: B1 light
B39: Fv-4-F1106 (antibody)
heavy: B1 heavy with R237L, K241S, M254Y
light: B1 light
B40: Fv-4-F1119 (antibody, human IgG1, kappa)
heavy: B37 heavy with R426S
light: B1 light
B41: Fv-4-F1107 (antibody, human IgG1, kappa)
heavy: B37 heavy with V252T, Q309T, P310V, A313Q, E424D, R426S
light: B1 light
B42: Fv-4-F1123 (antibody)
heavy: B37 heavy with E424V, R426S, S442E
light: B1 light
B43: Fv-4-F1232 (antibody)
heavy: B1 heavy with R237L, K241S, M254Y, R440K, E442D
light: B1 light
B44: Fv-4-F1120 (antibody, human IgG1, kappa)
heavy: B37 heavy with E424V
light: B1 light

Target: T1, soluble human FcRn (human, UniProt P55899 24-297; P61769 21-119)
T1 construct: Heterodimer of alpha chain and beta2-microglobulin; also called hFcRn
Experiment: SPR (Biacore), pH 6.0

| Kd [µM] | Binder |
| --- | --- |
| 0.064 | B1 |
| 0.13 | B2 |
| 0.061 | B3 |
| 0.072 | B4 |
| 0.096 | B5 |
| 0.069 | B6 |
| 0.097 | B7 |
| 0.093 | B8 |
| 0.057 | B9 |
| 0.11 | B10 |
| 0.15 | B11 |
| 0.099 | B12 |
| 0.07 | B13 |
| 0.12 | B14 |
| 0.063 | B15 |
| 0.045 | B16 |
| 0.055 | B17 |
| 0.11 | B18 |
| 0.052 | B19 |
| 0.11 | B20 |
| 0.084 | B21 |
| 0.13 | B22 |
| 0.087 | B23 |
| 0.08 | B24 |
| 0.07 | B25 |
| 0.096 | B26 |

Target: T1, soluble human FcRn
Experiment: SPR (Biacore), pH 7.0

| Kd [µM] | Binder |
| --- | --- |
| 0.12 | B27 |
| 0.0973 | B28 |
| 0.112 | B29 |
| 0.16 | B30 |
| 0.12 | B31 |
| 0.012 | B32 |
| 0.13 | B33 |
| 0.13 | B34 |
| 0.014 | B35 |
| 0.13 | B36 |
| 0.01 | B37 |
| 0.13 | B38 |
| 0.14 | B39 |
| 0.01 | B40 |
| 0.12 | B41 |
| 0.0095 | B42 |
| 0.0979 | B43 |
| 0.01 | B44 |
